Measured values reported in IntAct's records for PubMed 24291789.

B1: Cohesin subunit psc3 (Schizosaccharomyces pombe (strain ATCC 38366 / 972)), O13816 (parent)
chain: MSESVTTGSDDDGGDRESSPVMLSQSFDPMSSSSNSSSEENSDDDYEKTISSKKRHPRPNSKGVNVKRSRRNAIVEEDPQEEIFNNLFAFLLDQKVDTMDIAVSWFADYAKDNQSALANLINFILKCCGCNRAINVFDVQDQDSASATLSQIQLSVERTSTRDYPLNSKNLKFRNFRKRLTGLLSNFVSQLSIRNYLYNSTVFEDIMSWVVAMSSSTMRPIRHTATVFCLNIMTFLCEKSKELLNEHAIATKQLEKEEKRSRVNRNRINELNNSLGEIVKQQDTLTTYLNDYFDSVFVHRYRDVEPKIRVDCLQELGVWINTVPSIFFSGSYLRYLGWMLSDINTTVRLTVVKVLRKFFETDSFIGGLRHFSSRFKERILEMSCVDADIGVRVASIRLCNAMRTCGFLENSEILKVLKLILDINPRVQREAVLFLCKVVDESVNEKIDLWGEEDYILKAFSQTSLTTFSVHWIKFSQMCKLLEEVRLSYQSSFDYDTLLRIFQKNGNFITPITQALLNACEIDSIYQSWEDISNFVLFDNYTSTLKDPIDSILSFCKLNDFQESILLQLLSASIQTVCNNNFITPKTVHNKQAAETTNDQNKDKDLLYLNLLPYINSITERNSASPTLLHDSLRLLFSMDLTEMTDPQLSRHFELLINNLKKFFLTNNDLQIIQGCTILFLRLDSIPALKEDLKLLVTDICDQTVTEFLKNFGSFNIQDAVITKDEFVIFEACLTRIEGCTSLKDFSDYPEFDIIYERLVSLLSRVPNSYEDTLKFSAINTLQSLLFWFFLRKDNPADEEKKKDDETKVFNCLINIMNNDSSKILQLQAARTFLETVIMKEGVKASHYNDDNRVSEEHNFLKPQFLDALLKILEGWLYTYAKVGQFPFKRLTQASSPHTQISLDKNPLNRRLLEHVCCDLTSKLLIVVSLSNTITPEFSQQFCELRGHYGPKLSAIVDEFLN

Variants of: B1
Conditions: with mis4_schpo mis4, Q09725
Sequence of mis4_schpo mis4, Q09725 (Q09725 whole entry): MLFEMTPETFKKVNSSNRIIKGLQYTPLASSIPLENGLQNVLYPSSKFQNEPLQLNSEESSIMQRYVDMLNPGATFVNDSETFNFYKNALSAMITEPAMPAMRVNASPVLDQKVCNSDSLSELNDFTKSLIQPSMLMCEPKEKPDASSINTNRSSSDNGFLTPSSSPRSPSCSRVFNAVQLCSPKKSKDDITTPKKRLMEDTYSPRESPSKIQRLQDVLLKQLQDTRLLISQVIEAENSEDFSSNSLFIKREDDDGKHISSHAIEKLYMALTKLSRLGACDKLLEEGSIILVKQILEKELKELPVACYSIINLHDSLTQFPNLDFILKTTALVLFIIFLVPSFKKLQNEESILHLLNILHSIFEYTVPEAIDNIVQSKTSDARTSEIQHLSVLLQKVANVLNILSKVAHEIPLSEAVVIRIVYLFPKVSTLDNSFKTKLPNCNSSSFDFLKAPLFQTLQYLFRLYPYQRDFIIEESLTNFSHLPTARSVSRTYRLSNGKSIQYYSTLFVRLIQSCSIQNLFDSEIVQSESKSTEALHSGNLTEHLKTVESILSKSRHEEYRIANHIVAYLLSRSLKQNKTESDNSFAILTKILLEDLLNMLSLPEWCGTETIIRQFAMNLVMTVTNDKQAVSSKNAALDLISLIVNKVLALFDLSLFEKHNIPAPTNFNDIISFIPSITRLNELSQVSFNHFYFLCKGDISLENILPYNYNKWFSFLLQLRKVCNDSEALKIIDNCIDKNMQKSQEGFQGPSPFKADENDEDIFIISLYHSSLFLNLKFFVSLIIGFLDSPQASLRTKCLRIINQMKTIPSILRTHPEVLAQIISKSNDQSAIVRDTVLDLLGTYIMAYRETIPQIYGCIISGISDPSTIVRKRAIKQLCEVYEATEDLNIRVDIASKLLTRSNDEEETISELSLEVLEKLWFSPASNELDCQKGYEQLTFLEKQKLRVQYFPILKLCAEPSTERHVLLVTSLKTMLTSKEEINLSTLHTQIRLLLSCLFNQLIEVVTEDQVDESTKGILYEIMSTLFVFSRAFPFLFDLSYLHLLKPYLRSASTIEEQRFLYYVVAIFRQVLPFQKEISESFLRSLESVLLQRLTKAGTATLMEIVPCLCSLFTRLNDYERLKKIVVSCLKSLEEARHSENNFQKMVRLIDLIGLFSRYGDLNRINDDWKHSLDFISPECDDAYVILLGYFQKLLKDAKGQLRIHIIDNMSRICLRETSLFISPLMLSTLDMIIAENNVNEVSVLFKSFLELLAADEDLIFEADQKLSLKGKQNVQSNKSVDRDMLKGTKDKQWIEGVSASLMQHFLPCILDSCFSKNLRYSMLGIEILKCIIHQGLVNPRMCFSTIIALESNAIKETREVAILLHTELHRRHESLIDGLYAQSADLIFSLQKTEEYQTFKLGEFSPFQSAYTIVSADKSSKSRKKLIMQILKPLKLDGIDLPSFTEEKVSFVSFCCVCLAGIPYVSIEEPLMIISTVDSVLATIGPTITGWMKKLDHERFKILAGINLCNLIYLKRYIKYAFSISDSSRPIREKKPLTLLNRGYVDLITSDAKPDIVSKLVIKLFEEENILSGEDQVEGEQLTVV

Row | effect of a mutation on the interaction | Variant
1 | decreasing interaction strength | R300G
2 | decreasing interaction strength | P306L
